{"source": "patent US9205137B2", "about": "“Maturation of gastrointestinal tract” (ANARA AB, priority 2010, dated 2015)", "molecules": {"B1": {"name": "trypsin (protein, UniProt P00760 24-246, looked up)", "Serine protease 1": "IVGGYTCGANTVPYQVSLNSGYHFCGGSLINSQWVVSAAHCYKSGIQVRLGEDNINVVEGNEQFISASKSIVHPSYNSNTLNNDIMLIKLKSAASLNSRVASISLPTSCASAGTQCLISGWGNTKSSGTSYPDVLKCLKAPILSDSSCKSAYPGQITSNMFCAGYLEGGKDSCQGDSGGPVVCSGKLQGIVSWGSGCAQKNKPGVYTKVCNYVSWIKQTIASN", "notes": "protease that breaks down proteins at the basic amino acids"}, "B2": {"name": "papain (protein, UniProt P00784 134-345, looked up)", "Papain": "IPEYVDWRQKGAVTPVKNQGSCGSCWAFSAVVTIEGIIKIRTGNLNEYSEQELLDCDRRSYGCNGGYPWSALQLVAQYGIHYRNTYPYEGVQRYCRSREKGPYAAKTDGVRQVQPYNEGALLYSIANQPVSVVLEAAGKDFQLYRGGIFVGPCGNKVDHAVAAVGYGPNYILIKNSWGTGWGENGYIRIKRGTGNSYGVCGLYTSSFYPVKN", "notes": "enzyme from papaya fruit (papain)"}}, "key": {"suckling rats [1]": {"system": "suckling rats", "assay": "Papain vs microbial protease: macromolecule absorption (BSA, BIgG in plasma), Example 8", "format": "in vivo, Rattus norvegicus", "details": "in words (FIG. 14)", "excerpt": "(§1) The litter size for each dam was limited to 12 or 13 pups, to reduce variability.\n(§2) Suckling pups were divided into 3 groups depending on the treatments; microbial protease as a positive control, water as negative control and enzyme from papaya fruit (papain) (in total; protease=7, papain=8, control=7). The enzymes are available in the market in form of powders and were resolved in distilled water prior to stomach feeding during 14-16 d of age. The administered dose for each enzyme was 10000 USP/animal. The volume of administered enzymes and water (for control groups) was 0.01 ml/g b.wt. Prior to the feeding procedure, the pups were weighed. […] Three hours later, the pups were anaesthetized and organs were dissected out for analyses."}, "suckling rats [2]": {"system": "suckling rats", "assay": "Set I: brush-border disaccharidase activity in proximal SI, Example 3", "format": "in vivo, Rattus norvegicus", "details": "proximal part of SI, in words (FIG. 5)", "description": "The proximal samples of the SI were de-frozen and weighted and then homogenized with 9 parts of 0.9% NaCl (9 w/v). The homogenates (50 μl diluted samples) were incubated with the appropriate disaccharide (50 μl of 0.056M sucrose, maltose and lactose) for 1 hour at 37° C. After this, the liberated glucose was determined by adding glucose oxidase reagent (Sigma Chemicals), and incubated for 30 minutes. Then samples were transferred into the 96-well plate in triplication and the absorbance was measured at 450 nm. To measure the protein contents of the homogenates, Lowry method, was used, where BSA (Bovine Serum Albumin) was used as a standard. The results are presented as specific activity units per mg of protein (u/mg)."}, "suckling rats [3]": {"system": "suckling rats", "assay": "Set I: plasma concentration of marker molecules BSA and BIgG (macromolecule absorption), Example 3", "format": "in vivo, Rattus norvegicus", "details": "3 hours after marker feeding, day 17, in words (FIG. 6)", "excerpt": "The plasma level of marker molecules was quantified by using immunoassay rocket electrophoresis and SRI (single radial immunodiffusion) for plasma BSA and BIgG respectively."}, "suckling rats [4]": {"system": "suckling rats", "assay": "Set I: intestinal morphology of distal SI, Example 3", "format": "in vivo, Rattus norvegicus", "details": "distal part of SI, day 17", "description": "All samples collected for histology were fixed with Bouin's solution for 24 hours and then stored in 70% ethanol, dehydrated, embedded into the paraffin and then cut into sections with 5 μm thickness. The tissue sections were transferred onto the slides, rehydrated and stained with H&E according to the standard technique. After mounting under cover slips samples were examined using light microscopy to estimate ratio between total length of the villus and length of the adult type enterocytes using ImageJ program."}, "young rats": {"system": "young rats", "assay": "Growth of young rats treated with microbial amylase or lipase, Example 7", "format": "in vivo", "details": "10 000 USP for amylase/rat, days 14-16, in words (FIG. 11)", "description": "This study was done to consider the effect of separated enzymes on body growth. The experiment is completing study done earlier to investigate effects of protease on body growth and was performed in similar mode (see experiment 3-5 above).\nSuckling pups were divided into 3 groups depending on the treatment; amylase, lipase and water (n=7 per group). The enzymes are available in the market in form of powders and were resolved in distilled water prior to stomach feeding during 14-16 d of age, ones a day. The administered dose for each single enzyme feeding was 4 000 USP for lipase/rat and 10 000 USP for amylase/rat. The control group received vehicle."}, "suckling rats [5]": {"system": "suckling rats", "assay": "Set I: body weight, GI and lymphoid organ weights, stomach pH after individual enzymes or mixture, Example 3", "details": "day 17", "quoted_text": "All experiments were performed in young suckling rats by feeding them from 14 days of age via stomach tube for 3 continuous days (ones a day). One day after last treatment rats were euthanized and plasma and organs proceeded to study structural and functional changes of gastrointestinal system.\nThe pups were kept with their dam until dissection day (day 17).\nIn this set suckling pups were divided into five groups; control (water) amylase 10 000 USP/rat/day, lipase 4 000 USP/rat/day, protease 15 000 USP/rat/day, and mixture of these enzyme with corresponding activities per rat and day. This study was evaluating the effects of different pancreatic-like enzymes on the gut maturation and functioning and had 3 individual litters; n=12, n=10 and n=13, totally n=7 pups per each group. Each of the enzymes (Amylase, Protease and Lipase) (Sigma Aldrich) was available in the powder form and was resolved in distilled water prior to stomach feeding during days 14, 15 and 16. The volume of administered enzymes and distilled water (for control groups) was 0.01 ml/g BW. Each time, prior to the feeding procedure, the pups were weighed. […] Then 3 hours later, the pups were sedated with CO2 and anaesthetized by subcutaneous injection with a mixture of ketamine (Ketalar®, Pfizer, New York, USA, NaCl and azaperone (Stresnil®, Janssen Pharmaceutica, Beerse, Belgium), 0.01 ml/g BW. After opening the abdomen of the rats, 1 ml of blood was collected from heart by using syringes containing protease inhibitor and EDTA (50 μl) as anticoagulant and was transferred into ice-chilled tubes. After this, the pancreas was immediately dissected and rinsed with cold 0.9% NaCl, weighted and stored at −70 C. The SI was removed and its length was measured then divided into two halves, proximal and distal. Each segment was flushed out with cold 0.9% NaCl to clean the lumen and was then weighed separately. […] The stomach was removed and its content was collected into the tube (for measuring its pH) and frozen. Then cecum was dissected out, opened, rinse and weighed as well as liver and lymphoid organs spleen and thymus were dissected and weighted.\nThe contents of the stomach were de-frozen and then resolved with 1 ml of cold 0.9% NaCl. After resolving, they were centrifuged and the pH was measured in the supernatant using pH-meter.\nAll data are presented as mean±standard deviation (SD). Statistical comparisons between each group and control group were performed using the t-test. Results were considered as significant when P<0.05."}, "suckling rats [6]": {"system": "suckling rats", "assay": "Papain vs microbial protease: body and organ weight, Example 8", "format": "in vivo, Rattus norvegicus", "excerpt": "as §1, §2"}, "suckling rats [7]": {"system": "suckling rats", "assay": "Papain vs microbial protease: intestinal disaccharidase activity in proximal SI, Example 8", "format": "in vivo, Rattus norvegicus", "details": "proximal part of SI, in words (FIG. 13)", "excerpt": "as §1, §2\nThe activities of the brush-border enzymes lactase, maltase and sucrase were analyzed in the proximal part of the SI in groups treated with papain and protease."}, "[8]": {"details": "10000 USP/animal, days 14-16, day 17"}}, "data": [{"molecule": "bromelain", "values": [{"measurement": "intestinal macromolecular absorptive capacity", "setting": "suckling rats [1]", "value": "remained in a higher level"}]}, {"molecule": "α-Amylase from Aspergillus oryzae", "values": [{"measurement": "lactase activity", "setting": "suckling rats [2]", "value": "higher"}, {"measurement": "maltase activity", "setting": "suckling rats [2]", "value": "stayed in a lower level"}, {"measurement": "sucrase activity", "setting": "suckling rats [2]", "value": "stayed in a lower level"}, {"measurement": "uptake of marker molecule BIgG to plasma", "setting": "suckling rats [3]", "value": "remained in a higher level"}, {"measurement": "uptake of marker molecule BSA to plasma", "setting": "suckling rats [3]", "value": "remained in a higher level"}, {"measurement": "foetal-type epithelium with vacuolated enterocytes along the villi", "setting": "suckling rats [4]", "value": 77, "unit": "%"}, {"measurement": "growth of young rats in comparison to lipase and control group", "setting": "young rats", "value": "clear effect of amylase to stimulate growth"}, {"measurement": "Body weight", "setting": "suckling rats [5]; 3 days treatment", "value": "37.2 ± 2.3", "unit": "gr"}, {"measurement": "Cecum", "setting": "suckling rats [5]; 3 days treatment", "value": "2.5 ± 0.3", "unit": "mg/g BW"}, {"measurement": "Distal SI", "setting": "suckling rats [5]; 3 days treatment", "value": "15.2 ± 2.3", "unit": "mg/g BW"}, {"measurement": "Liver", "setting": "suckling rats [5]; 3 days treatment", "value": "33.7 ± 1.3", "unit": "mg/g BW"}, {"measurement": "Pancreas", "setting": "suckling rats [5]; 3 days treatment", "value": "3.5 ± 0.4", "unit": "mg/g BW"}, {"measurement": "Proximal SI", "setting": "suckling rats [5]; 3 days treatment", "value": "16.6 ± 1.9", "unit": "mg/g BW"}, {"measurement": "SI length", "setting": "suckling rats [5]; 3 days treatment", "value": "1.5 ± 0.0", "unit": "cm/g BW"}, {"measurement": "Spleen", "setting": "suckling rats [5]; 3 days treatment", "value": "3.6 ± 0.7", "unit": "mg/g BW"}, {"measurement": "Stomach", "setting": "suckling rats [5]; 3 days treatment", "value": "6.8 ± 0.4", "unit": "mg/g BW"}, {"measurement": "Thymus", "setting": "suckling rats [5]; 3 days treatment", "value": "5.1 ± 0.2", "unit": "mg/g BW"}, {"measurement": "pH", "setting": "suckling rats [5]; stomach contents", "value": "4.0 ± 0.2"}]}, {"molecule": "B1", "values": [{"measurement": "weight of distal part of SI", "setting": "suckling rats [6]; in words", "value": "increased weight"}, {"measurement": "intestinal macromolecular absorptive capacity", "setting": "suckling rats [1]", "value": "remained in a higher level"}]}, {"molecule": "B2", "values": [{"measurement": "activity of maltase compared to control", "setting": "suckling rats [7]", "value": "significantly increased"}, {"measurement": "activity of sucrase compared to control", "setting": "suckling rats [7]", "value": "significantly increased"}, {"measurement": "Body weight", "setting": "suckling rats [6]; [8]", "value": "33.2 ± 5.00", "unit": "gr"}, {"measurement": "Cecum", "setting": "suckling rats [6]; [8]", "value": "3.42 ± 0.45", "unit": "mg/g BW"}, {"measurement": "Distal SI", "setting": "suckling rats [6]; [8]", "value": "17.8 ± 2.5", "unit": "mg/g BW"}, {"measurement": "Liver", "setting": "suckling rats [6]; [8]", "value": "33.33 ± 1.52", "unit": "mg/g BW"}, {"measurement": "Pncrease", "setting": "suckling rats [6]; [8]", "value": "4.07 ± 0.46", "unit": "mg/g BW"}, {"measurement": "Proxima SI", "setting": "suckling rats [6]; [8]", "value": "21.49 ± 1.57", "unit": "mg/g BW"}, {"measurement": "SI length", "setting": "suckling rats [6]; [8]", "value": "1.72 ± 0.17", "unit": "cm/g BW"}, {"measurement": "Spleen", "setting": "suckling rats [6]; [8]", "value": "3.46 ± 0.44", "unit": "mg/g BW"}, {"measurement": "Stomach", "setting": "suckling rats [6]; [8]", "value": "7.13 ± 0.45", "unit": "mg/g BW"}, {"measurement": "Thymus", "setting": "suckling rats [6]; [8]", "value": "4.65 ± 0.92", "unit": "mg/g BW"}, {"measurement": "effect on body growth", "setting": "suckling rats [6]; dose 10 000 USP, days 14 to 17, in words (FIG. 12)", "value": "No effect"}, {"measurement": "BSA concentration in rat plasma", "setting": "suckling rats [1]; day 17, 3 hours after feeding", "value": "significantly decreased"}, {"measurement": "uptake of macromolecules, BIgG absorption", "setting": "suckling rats [1]; day 17, 3 hours after feeding", "value": "significantly lower"}]}]}
